Reference: the supplement of paper PMC10567573

B1: TRIM43 (parent)
chain: YQEIFQQLQRSWVKMDQKSKHLKE

Variants of: B1
Experiment: protein stability index of a GFP-peptide fusion (GPS, HEK-293T) (PSI 1-6); higher = more stable
Conditions: c terminus: a fixed tail appended
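Further: lentivirally expressed fusions sorted by FACS into six bins by GFP to DsRed ratio, PSI derived from sequencing read proportions per bin multiplied by bin number.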

Variant	protein stability index
YQEIFQQQQRSWVKMDQKSKHLKE [L8Q]	2.88
YQEIFQQMQRSWVKMDQKSKHLKE [L8M]	2.66
YQEIFQQFQRSWVKMDQKSKHLKE [L8F]	2.62
YQEIFQQIQRSWVKMDQKSKHLKE [L8I]	1.97
YQEIFQQRQRSWVKMDQKSKHLKE [L8R]	3.03
YQEIFQQCQRSWVKMDQKSKHLKE [L8C]	2.44
YQEIFQQKQRSWVKMDQKSKHLKE [L8K]	3.1
YQEIFQQVQRSWVKMDQKSKHLKE [L8V]	2.09
YQEIFQQDQRSWVKMDQKSKHLKE [L8D]	2.71
YQEIFQQLQNSWVKMDQKSKHLKE [R10N]	2.84
YQEIFQQLQWSWVKMDQKSKHLKE [R10W]	1.89
YQEIFQQLQCSWVKMDQKSKHLKE [R10C]	1.96
YQEIFQQLQISWVKMDQKSKHLKE [R10I]	2.95
YQEIFQQLQQSWVKMDQKSKHLKE [R10Q]	2.35
YQEIFQQLQMSWVKMDQKSKHLKE [R10M]	2.57
YQEIFQQLQGSWVKMDQKSKHLKE [R10G]	3.03
YQEIFQQLQSSWVKMDQKSKHLKE [R10S]	2.71
YQEEFQQLQRSWVKMDQKSKHLKE [I4E]	1.78
YQEHFQQLQRSWVKMDQKSKHLKE [I4H]	1.85
YQEMFQQLQRSWVKMDQKSKHLKE [I4M]	1.51
YQEGFQQLQRSWVKMDQKSKHLKE [I4G]	1.01
YQELFQQLQRSWVKMDQKSKHLKE [I4L]	2.19
YQECFQQLQRSWVKMDQKSKHLKE [I4C]	1.44
YQERFQQLQRSWVKMDQKSKHLKE [I4R]	2.05

Variant	protein stability index
YQEVFQQLQRSWVKMDQKSKHLKE [I4V]	2.16
YQEIFQQLQRSWVKFDQKSKHLKE [M15F]	1.99
YQEIFQQLQRSWVKEDQKSKHLKE [M15E]	2.87
YQEIFQQLQRSWVKSDQKSKHLKE [M15S]	2.46
YQEIFQQLQRSWVKIDQKSKHLKE [M15I]	1.62
YQEIFQQLQRSWVKLDQKSKHLKE [M15L]	2
YQEIFQQLQRSWVKVDQKSKHLKE [M15V]	2.13
YQEIFQQLQRSWVKNDQKSKHLKE [M15N]	2.59
YQEIFQQLQRSWVKWDQKSKHLKE [M15W]	1.48
YQEIFQQLQRSWVKYDQKSKHLKE [M15Y]	2.05
YQEIIQQLQRSWVKMDQKSKHLKE [F5I]	1.7
YQEILQQLQRSWVKMDQKSKHLKE [F5L]	2.65
YQEIKQQLQRSWVKMDQKSKHLKE [F5K]	3.17
YQEIWQQLQRSWVKMDQKSKHLKE [F5W]	2.19
YQEIVQQLQRSWVKMDQKSKHLKE [F5V]	2.82
YQEIGQQLQRSWVKMDQKSKHLKE [F5G]	3.31
YQEIRQQLQRSWVKMDQKSKHLKE [F5R]	3.15
YQEIAQQLQRSWVKMDQKSKHLKE [F5A]	2.94
YQEISQQLQRSWVKMDQKSKHLKE [F5S]	3.39
YQEINQQLQRSWVKMDQKSKHLKE [F5N]	3.47
YQEIFEQLQRSWVKMDQKSKHLKE [Q6E]	2.95
YQEIFKQLQRSWVKMDQKSKHLKE [Q6K]	1.85
YQEIFNQLQRSWVKMDQKSKHLKE [Q6N]	2.21
YQEIFHQLQRSWVKMDQKSKHLKE [Q6H]	2.17

Variant	protein stability index
YQEIFVQLQRSWVKMDQKSKHLKE [Q6V]	1.85
YQEIFGQLQRSWVKMDQKSKHLKE [Q6G]	2.52
YQEIFLQLQRSWVKMDQKSKHLKE [Q6L]	1.55
YQEIFPQLQRSWVKMDQKSKHLKE [Q6P]	2.28
YQEIFCQLQRSWVKMDQKSKHLKE [Q6C]	2.07
TQEIFQQLQRSWVKMDQKSKHLKE [Y1T]	2.88
MQEIFQQLQRSWVKMDQKSKHLKE [Y1M]	1.99
GQEIFQQLQRSWVKMDQKSKHLKE [Y1G]	3.82
NQEIFQQLQRSWVKMDQKSKHLKE [Y1N]	3.73
QQEIFQQLQRSWVKMDQKSKHLKE [Y1Q]	3.35
LQEIFQQLQRSWVKMDQKSKHLKE [Y1L]	1.5
WQEIFQQLQRSWVKMDQKSKHLKE [Y1W]	3.04
EQEIFQQLQRSWVKMDQKSKHLKE [Y1E]	4.08
YQEIFQQLQRSWVKMDQKSKHLKF [E24F]	1.92
YQEIFQQLQRSWVKMDQKSKHLKP [E24P]	1.81
YQEIFQQLQRSWVKMDQKSKHLKV [E24V]	1.81
YQEIFQQLQRSWVKMDQKSKHLKN [E24N]	2.28
YQEIFQQLQRSWVKMDQKSKHLKT [E24T]	1.91
YQEIFQQLQRSWVKMDQKSKHLKI [E24I]	1.78
YQEIFQQLQRSWVKMDQKSAHLKE [K20A]	2.74
YQEIFQQLQRSWVKMDQKSVHLKE [K20V]	1.94
YQEIFQQLQRSWVKMDQKSIHLKE [K20I]	1.95
YQEIFQQLQRSWVKMDQKSEHLKE [K20E]	2.85
YQEIFQQLQRSWVKMDQKSDHLKE [K20D]	2

Variant	protein stability index
YQEIFQQLQRSWVKMDQKSNHLKE [K20N]	2.44
YNEIFQQLQRSWVKMDQKSKHLKE [Q2N]	2.14
YLEIFQQLQRSWVKMDQKSKHLKE [Q2L]	1.67
YDEIFQQLQRSWVKMDQKSKHLKE [Q2D]	2.64
YIEIFQQLQRSWVKMDQKSKHLKE [Q2I]	1.52
YGEIFQQLQRSWVKMDQKSKHLKE [Q2G]	1.66
YQEIFQQLQRSWVKMDTKSKHLKE [Q17T]	2.62
YQEIFQQLQRSWVKMDAKSKHLKE [Q17A]	2.1
YQEIFQQLQRSWVKMDWKSKHLKE [Q17W]	1.72
YQEIFQQLQRSWVKMDNKSKHLKE [Q17N]	2.89
YQEIFQQLQRSWVKMDSKSKHLKE [Q17S]	2.29
YQEIFQQLQRSWVKMDCKSKHLKE [Q17C]	2.05
YQEIFQQLQRSWVKMDGKSKHLKE [Q17G]	1.96
YQEIFQQLQRSWVKMDFKSKHLKE [Q17F]	2.68
YQEIFQQLQRSEVKMDQKSKHLKE [W12E]	3.16
YQEIFQQLQRSRVKMDQKSKHLKE [W12R]	3.12
YQEIFQQLQRSYVKMDQKSKHLKE [W12Y]	2.18
YQEIFQQLQRSNVKMDQKSKHLKE [W12N]	2.81
YQEIFQQLQRSVVKMDQKSKHLKE [W12V]	2.69
YQEIFQQLQRSIVKMDQKSKHLKE [W12I]	2.29
YQEIFQQLQRSQVKMDQKSKHLKE [W12Q]	2.65
YQEIFQQLQRSDVKMDQKSKHLKE [W12D]	2.78
YQEIFQQLQRSHVKMDQKSKHLKE [W12H]	2.5
YQEIFQQLQRSKVKMDQKSKHLKE [W12K]	2.7

Variant	protein stability index
YQEIFQQLQRSPVKMDQKSKHLKE [W12P]	3.48
YQEIFQQLQRSMVKMDQKSKHLKE [W12M]	2.42
YQEIFQQLQRSWVKMDQSSKHLKE [K18S]	2
YQEIFQQLQRSWVKMDQGSKHLKE [K18G]	2.4
YQEIFQQLQRSWVKMDQRSKHLKE [K18R]	2.57
YQEIFQQLQRSWVKMDQISKHLKE [K18I]	1.37
YQEIFQQLQRSWVKMDQNSKHLKE [K18N]	2.34
YQEIFQQLQRSWVKMDQVSKHLKE [K18V]	1.69
YQEIFQQLQRSWVKMDQTSKHLKE [K18T]	2.71
YQEIFQQLQRSWVKMDQCSKHLKE [K18C]	1.94
YQEIFQQLQRSWVKMDQDSKHLKE [K18D]	2.87
YQEIFQQLQRSWVKMDQWSKHLKE [K18W]	1.77
YQEIFQQLQRSWVKMDQKSKHFKE [L22F]	1.91
YQEIFQQLQRSWVKMDQKSKHPKE [L22P]	2.94
YQEIFQQLQRSWVKMDQKSKHQKE [L22Q]	2.91
YQEIFQQLQRSWVKMDQKSKHVKE [L22V]	2.39
YQEIFQQLQRSWVKMDQKSKHGKE [L22G]	2.6
YQEIFQQLQRSWVKMDQKSKHCKE [L22C]	2.6
YQEIFQQLQRSWVKMDQKSKHIKE [L22I]	2.21
YQEIFQQLQRSWVKMDQKSKHEKE [L22E]	3.27
YQEIFQQLQRSWVPMDQKSKHLKE [K14P]	2.19
YQEIFQQLQRSWVVMDQKSKHLKE [K14V]	2.18
YQEIFQQLQRSWVQMDQKSKHLKE [K14Q]	2.36
YQEIFQQLQRSWVTMDQKSKHLKE [K14T]	2.25

Variant	protein stability index
YQEIFQQLQRSWVYMDQKSKHLKE [K14Y]	2.2
YQEIFQQLQRSWVMMDQKSKHLKE [K14M]	2.37
YQEIFQGLQRSWVKMDQKSKHLKE [Q7G]	2.59
YQEIFQDLQRSWVKMDQKSKHLKE [Q7D]	2.79
YQEIFQMLQRSWVKMDQKSKHLKE [Q7M]	2.13
YQEIFQLLQRSWVKMDQKSKHLKE [Q7L]	2.11
YQEIFQELQRSWVKMDQKSKHLKE [Q7E]	2.52
YQEIFQYLQRSWVKMDQKSKHLKE [Q7Y]	2.53
YQEIFQQLQRRWVKMDQKSKHLKE [S11R]	1.82
YQEIFQQLQRCWVKMDQKSKHLKE [S11C]	1.97
YQEIFQQLQRYWVKMDQKSKHLKE [S11Y]	2.65
YQEIFQQLQRWWVKMDQKSKHLKE [S11W]	1.56
YQEIFQQLQRVWVKMDQKSKHLKE [S11V]	1.63
YQEIFQQLQRQWVKMDQKSKHLKE [S11Q]	1.8
YQEIFQQLQRDWVKMDQKSKHLKE [S11D]	2.68
YQEIFQQLQRKWVKMDQKSKHLKE [S11K]	1.93
YQEIFQQLQRAWVKMDQKSKHLKE [S11A]	1.34
YQEIFQQLQRSWVKMDQKSKHLYE [K23Y]	1.58
YQEIFQQLQRSWVKMDQKSKHLAE [K23A]	2.92
YQEIFQQLQRSWVKMDQKSKHLNE [K23N]	2.03
YQEIFQQLQRSWVKMDQKSKHLPE [K23P]	2.08
YQEIFQQLQRSWVKMDQKSKHLFE [K23F]	1.47
YQEIFQQLQRSWVKMDQKSKHLVE [K23V]	1.92
YQEIFQQLQRSWVKMDQKSKHLTE [K23T]	2.14

Variant	protein stability index
YQEIFQQLSRSWVKMDQKSKHLKE [Q9S]	2.58
YQEIFQQLRRSWVKMDQKSKHLKE [Q9R]	3.11
YQEIFQQLGRSWVKMDQKSKHLKE [Q9G]	2.59
YQEIFQQLYRSWVKMDQKSKHLKE [Q9Y]	2.67
YQEIFQQLKRSWVKMDQKSKHLKE [Q9K]	1.88
YQEIFQQLARSWVKMDQKSKHLKE [Q9A]	1.83
YQEIFQQLFRSWVKMDQKSKHLKE [Q9F]	2.23
YQEIFQQLQRSWVKMDQKDKHLKE [S19D]	2.68
YQEIFQQLQRSWVKMDQKQKHLKE [S19Q]	2.14
YQEIFQQLQRSWVKMDQKVKHLKE [S19V]	2.12
YQEIFQQLQRSWVKMDQKHKHLKE [S19H]	1.83
YQEIFQQLQRSWVKMDQKLKHLKE [S19L]	3.31
YQEIFQQLQRSWVKMDQKKKHLKE [S19K]	1.77
YQEIFQQLQRSWVKMDQKWKHLKE [S19W]	2.56
YQEIFQQLQRSWVKMDQKGKHLKE [S19G]	1.86
YQEIFQQLQRSWVKMDQKYKHLKE [S19Y]	3
YQEIFQQLQRSWVKMDQKNKHLKE [S19N]	2.35
YQEIFQQLQRSWVKMDQKFKHLKE [S19F]	1.95
YQEIFQQLQRSWVKMDQKSKWLKE [H21W]	1.53
YQEIFQQLQRSWVKMDQKSKPLKE [H21P]	1.64
YQEIFQQLQRSWVKMDQKSKKLKE [H21K]	2.04
YQEIFQQLQRSWVKMDQKSKSLKE [H21S]	2.37
YQEIFQQLQRSWVKMDQKSKILKE [H21I]	2.09
YQEIFQQLQRSWVKMDQKSKCLKE [H21C]	2.65

Variant	protein stability index
YQEIFQQLQRSWVKMDQKSKFLKE [H21F]	1.94
YQEIFQQLQRSWVKMDQKSKMLKE [H21M]	2.5
YQEIFQQLQRSWYKMDQKSKHLKE [V13Y]	2.21
YQEIFQQLQRSWWKMDQKSKHLKE [V13W]	1.16
YQEIFQQLQRSWCKMDQKSKHLKE [V13C]	2.02
YQEIFQQLQRSWNKMDQKSKHLKE [V13N]	2.22
YQEIFQQLQRSWIKMDQKSKHLKE [V13I]	2.14
YQEIFQQLQRSWHKMDQKSKHLKE [V13H]	2.48
YQLIFQQLQRSWVKMDQKSKHLKE [E3L]	1.79
YQKIFQQLQRSWVKMDQKSKHLKE [E3K]	1.76
YQDIFQQLQRSWVKMDQKSKHLKE [E3D]	2.18
YQVIFQQLQRSWVKMDQKSKHLKE [E3V]	1.93
YQMIFQQLQRSWVKMDQKSKHLKE [E3M]	2.13
YQTIFQQLQRSWVKMDQKSKHLKE [E3T]	1.52
YQFIFQQLQRSWVKMDQKSKHLKE [E3F]	1.53
YQNIFQQLQRSWVKMDQKSKHLKE [E3N]	1.58
YQEIFQQLQRSWVKMPQKSKHLKE [D16P]	2.12
YQEIFQQLQRSWVKMRQKSKHLKE [D16R]	2.2
YQEIFQQLQRSWVKMNQKSKHLKE [D16N]	3.48
YQEIFQQLQRSWVKMLQKSKHLKE [D16L]	3.47
